T1: centromere B (UniProt P07199 2-599)
T1 construct: Kit antigen
T1 sequence: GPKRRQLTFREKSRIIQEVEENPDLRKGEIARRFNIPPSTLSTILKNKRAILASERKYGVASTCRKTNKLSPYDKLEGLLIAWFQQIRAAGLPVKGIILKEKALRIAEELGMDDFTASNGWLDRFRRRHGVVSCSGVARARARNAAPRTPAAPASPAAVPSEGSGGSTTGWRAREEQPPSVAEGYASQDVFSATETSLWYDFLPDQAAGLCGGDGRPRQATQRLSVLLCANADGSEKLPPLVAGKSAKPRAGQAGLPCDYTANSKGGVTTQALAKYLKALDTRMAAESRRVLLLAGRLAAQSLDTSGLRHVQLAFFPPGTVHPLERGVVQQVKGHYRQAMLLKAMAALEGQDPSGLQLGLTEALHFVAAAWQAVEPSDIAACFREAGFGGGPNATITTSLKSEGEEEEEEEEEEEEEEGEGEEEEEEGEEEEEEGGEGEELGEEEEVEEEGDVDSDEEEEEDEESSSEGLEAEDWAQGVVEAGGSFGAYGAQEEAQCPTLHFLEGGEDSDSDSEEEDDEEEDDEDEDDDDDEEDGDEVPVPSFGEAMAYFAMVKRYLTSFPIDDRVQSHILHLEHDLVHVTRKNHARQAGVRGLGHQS

T2: Scl 70 (UniProt P11387 2-765)
T2 construct: Kit antigen
T2 sequence: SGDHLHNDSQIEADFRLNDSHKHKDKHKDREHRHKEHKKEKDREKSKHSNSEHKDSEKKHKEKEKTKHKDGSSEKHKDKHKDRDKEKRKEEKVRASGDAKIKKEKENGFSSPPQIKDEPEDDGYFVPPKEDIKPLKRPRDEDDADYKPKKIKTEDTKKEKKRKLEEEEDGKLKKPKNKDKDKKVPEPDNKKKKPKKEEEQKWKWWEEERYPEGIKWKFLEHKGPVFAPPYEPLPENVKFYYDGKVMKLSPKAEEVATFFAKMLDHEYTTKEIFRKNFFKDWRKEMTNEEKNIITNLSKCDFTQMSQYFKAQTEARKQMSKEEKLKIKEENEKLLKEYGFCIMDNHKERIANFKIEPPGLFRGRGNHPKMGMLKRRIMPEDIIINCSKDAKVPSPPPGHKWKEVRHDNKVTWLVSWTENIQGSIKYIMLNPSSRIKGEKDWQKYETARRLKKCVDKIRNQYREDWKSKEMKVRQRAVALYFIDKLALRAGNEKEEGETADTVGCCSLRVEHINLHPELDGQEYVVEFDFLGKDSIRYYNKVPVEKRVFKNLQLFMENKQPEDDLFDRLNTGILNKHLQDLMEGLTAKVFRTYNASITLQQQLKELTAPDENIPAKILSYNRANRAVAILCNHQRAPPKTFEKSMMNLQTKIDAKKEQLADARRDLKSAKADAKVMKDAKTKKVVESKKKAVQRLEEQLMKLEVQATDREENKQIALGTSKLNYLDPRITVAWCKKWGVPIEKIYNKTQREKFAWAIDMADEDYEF

T3: Jo-1 (UniProt P12081 2-509)
T3 construct: Kit antigen
T3 sequence: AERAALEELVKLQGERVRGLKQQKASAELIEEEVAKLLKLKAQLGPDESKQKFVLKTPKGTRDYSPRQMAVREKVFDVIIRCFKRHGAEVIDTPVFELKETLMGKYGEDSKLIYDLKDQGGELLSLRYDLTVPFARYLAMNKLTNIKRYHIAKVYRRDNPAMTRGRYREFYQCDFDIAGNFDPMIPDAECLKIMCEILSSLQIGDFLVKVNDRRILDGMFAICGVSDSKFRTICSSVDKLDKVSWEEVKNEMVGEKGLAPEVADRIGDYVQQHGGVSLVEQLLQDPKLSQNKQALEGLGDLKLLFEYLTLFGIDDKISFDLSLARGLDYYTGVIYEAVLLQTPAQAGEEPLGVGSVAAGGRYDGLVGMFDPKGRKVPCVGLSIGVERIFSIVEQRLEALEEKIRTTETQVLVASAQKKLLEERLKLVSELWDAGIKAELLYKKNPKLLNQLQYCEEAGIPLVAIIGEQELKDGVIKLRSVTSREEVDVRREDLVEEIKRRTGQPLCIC

T4: SS-B/La (UniProt P05455 1-408)
T4 construct: Kit antigen
T4 sequence: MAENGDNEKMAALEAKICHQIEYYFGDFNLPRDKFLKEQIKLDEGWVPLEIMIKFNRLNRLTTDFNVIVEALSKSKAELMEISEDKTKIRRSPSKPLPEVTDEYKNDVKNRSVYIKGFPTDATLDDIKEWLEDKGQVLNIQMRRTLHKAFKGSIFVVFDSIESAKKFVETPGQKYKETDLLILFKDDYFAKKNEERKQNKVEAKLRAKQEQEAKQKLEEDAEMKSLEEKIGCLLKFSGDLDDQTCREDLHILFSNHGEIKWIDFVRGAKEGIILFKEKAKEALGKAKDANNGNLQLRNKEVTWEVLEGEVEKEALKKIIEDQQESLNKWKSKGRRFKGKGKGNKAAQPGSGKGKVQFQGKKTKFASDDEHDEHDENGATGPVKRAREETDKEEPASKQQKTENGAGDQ

B1: 46472-2 (antibody, V domains shown)
VH: EVQLVQSGAEVKKPGESLRISCKGSGYRFITYWISWVRQMPGRGLEWMGKIDPSDSSTNYSPSFQGHVAISVDKSFNTAYLQWSRLNTSDTAMYYCAAGPTGYDLLTGQYFPYFNYWAQGTLVTVSS
VL: NFMLTQPHSVSESPGKTVSISCTRSSGSIASKFMQWYQQRPGSAPTILIYEDNLRPSGVPDRFSGSIDTSSNSALLTISGLKTEDEADYYCQSYHGSDVVFGGGTKLTVL
B2: 46472-6 (antibody, V domains shown)
VH: QLQLQESGPGLVKPSETLFLFCSVSGGSISISTHYWEWIRQPPGKGLEWIGSFYSSGTTYYNPSLKGRVTISADTSKSQISLKMSSVTAADTAVYYCARRPQYLLLSMTTGRRHHDFVMDVWGQGTTVTVSS
VL: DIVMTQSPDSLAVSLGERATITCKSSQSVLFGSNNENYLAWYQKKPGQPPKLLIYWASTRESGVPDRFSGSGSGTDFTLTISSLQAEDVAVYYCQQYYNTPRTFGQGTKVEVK
B3: 46472-1 (antibody, V domains shown)
VH: QVQLVQSGAEVKKDGSSVKVSCEASGGTFSDYAISWVRQAPGQGLEWMGRIIPILGITNYAQQFQTRVTITADKSTSAVYMELSSLRSKDTAIYYCAREVNYYSAFDDWGQGTQVTVSS
VL: EIVMTQSPDTLSVSPGERATLSCRASQNVSSNLAWYQQKPGQAPRLLIYDASTRATGIPARFSGSGSGTEFTLAISSLQSEDFAVYYCQQYNFWWTFGQGTKVDIK
B4: 46472-3 (antibody, V domains shown)
VH: QVQLVESGGGVVQPGRSLRLSCAASGFTFSVYPMHWVRQAPGRGLEWVAVISYDGSNQYYADSVRGRFTISRDNSKNTLYLHMNSLRPEDTAVFYCARDRSATYYGPFDYWGQGTLVTVSS
VL: SSELTQDPAVSVALGQTVRITCQGDSLRSYSASWYQQKPSQAPVLVIYANNNRPSGIPDRFSGSNSGNTASLTITGAQAEDEADYYCNSRDNSGNHPVIFGGGTTLTVL
B5: 46472-4 (antibody, V domains shown)
VH: EVPLLESGGGLVQPGGSLRLSCVASGFPFSSFALSWVRQAPGKGLEWVSTINTNGGTTYYLDSVKGRFTVSRDNSKNTLFLQMSSLRAEDTAIYYCAKDLLSHSGTYSAGSTFDYWGQGTLVIVSS
VL: DIQMTQSPSSLSASVGDRVTITCRASQSIGVYLNWYQQKPGKAPKLLIHATSNLQSGVPSRFSCSGSGTEFTLTISSLQPEDFATYYCQESYSTNTFGQGTKLEIK
B6: 46472-12 (antibody, V domains shown)
VH: QVQLVQSGAEVQKPGASVKVSCKASGYRFDIFDINWVRQASGQGPEWMGWMNPNSGNTGYAHKFQGRVTMTRDSSTNTAYMELSSLTFEDTAVYYCARDRVERTGNVGFGYYAMDVWGQGTTVIVSS
VL: DIQMTQSPSSLSASVGDRVTITCRASQSITNYLNWYQQRPGKAPRLLIYAASSLQSGVPSRFSGSGSGTDFTLTISSLQPEDFGTFYCQQTYSSPSYTFGQGTKLEMK

Tests used:
SARS-CoV-2 S2 domain = molecular target: T5, SARS-CoV-2 S2 domain (SARS-CoV-2, UniProt P0DTC2 686-1213); test: ELISA on SARS-CoV-2 subdomain proteins (FIG. 15A, FIG. 19A)
T5 construct: domain: S2; also called the S2 domain

centromere B = molecular target: T1, centromere B; test: Luminex AtheNA Multi-Lyte ANA-II Plus bead assay
Scl 70 = molecular target: T2, Scl 70; test: Luminex AtheNA Multi-Lyte ANA-II Plus bead assay
Jo-1 = molecular target: T3, Jo-1; test: Luminex AtheNA Multi-Lyte ANA-II Plus bead assay
SS-B/La = molecular target: T4, SS-B/La; test: Luminex AtheNA Multi-Lyte ANA-II Plus bead assay
SARS-CoV-2 S1 domain = molecular target: T6, SARS-CoV-2 S1 domain (SARS-CoV-2, UniProt P0DTC2 16-685); test: ELISA on SARS-CoV-2 subdomain proteins (FIG. 15A, FIG. 19A)
T6 construct: domain: S1; also called the S1 domain

SARS-CoV-2 NTD = molecular target: T7, SARS-CoV-2 NTD (SARS-CoV-2, UniProt P0DTC2 16-305); test: ELISA on RBD and NTD proteins (FIG. 15B, FIG. 19B)
T7 construct: domain: NTD; also called the NTD; N-terminal domain

Row | Binder | binding result (SARS-CoV-2 S2 domain) | binding result (centromere B) | binding result (Scl 70) | binding result (Jo-1) | binding result (SS-B/La) | binding result (SARS-CoV-2 S1 domain) | binding result (SARS-CoV-2 NTD)
1 | B1 | binds | no binding | no binding | no binding | no binding |  | 
2 | B2 |  | no binding | no binding |  | no binding | binds | binds
3 | B3 | binds | no binding | no binding | no binding | no binding |  | 
4 | B4 | binds | no binding | no binding | no binding | no binding |  | 
5 | B5 | binds | no binding | no binding | no binding | no binding |  | 
6 | B6 |  | no binding | no binding | no binding | no binding | binds | 
